Results from PMC2141641 (The Journal of Cell Biology, 1997).

B2: GST-CD36 fusion protein FP93-120 (domain or fragment, human, UniProt P16671 93-120, looked up)
chain: YRVRFLAKENVTQDAEDNTVSFLQPNGA

How the values were obtained:
Assay in all cases: radioligand binding
[1] = target: CD36 expressed on Bowes melanoma cells stably transfected with human CD36 cDNA (human, UniProt P16671 1-472)
[2] = target: B2
[3] = target: Thrombospondin-1 (human, UniProt P07996 19-1170, 125I label (radiolabeled TSP-1) in the binding assays)
Chain of Thrombospondin-1 (P07996 19-1170): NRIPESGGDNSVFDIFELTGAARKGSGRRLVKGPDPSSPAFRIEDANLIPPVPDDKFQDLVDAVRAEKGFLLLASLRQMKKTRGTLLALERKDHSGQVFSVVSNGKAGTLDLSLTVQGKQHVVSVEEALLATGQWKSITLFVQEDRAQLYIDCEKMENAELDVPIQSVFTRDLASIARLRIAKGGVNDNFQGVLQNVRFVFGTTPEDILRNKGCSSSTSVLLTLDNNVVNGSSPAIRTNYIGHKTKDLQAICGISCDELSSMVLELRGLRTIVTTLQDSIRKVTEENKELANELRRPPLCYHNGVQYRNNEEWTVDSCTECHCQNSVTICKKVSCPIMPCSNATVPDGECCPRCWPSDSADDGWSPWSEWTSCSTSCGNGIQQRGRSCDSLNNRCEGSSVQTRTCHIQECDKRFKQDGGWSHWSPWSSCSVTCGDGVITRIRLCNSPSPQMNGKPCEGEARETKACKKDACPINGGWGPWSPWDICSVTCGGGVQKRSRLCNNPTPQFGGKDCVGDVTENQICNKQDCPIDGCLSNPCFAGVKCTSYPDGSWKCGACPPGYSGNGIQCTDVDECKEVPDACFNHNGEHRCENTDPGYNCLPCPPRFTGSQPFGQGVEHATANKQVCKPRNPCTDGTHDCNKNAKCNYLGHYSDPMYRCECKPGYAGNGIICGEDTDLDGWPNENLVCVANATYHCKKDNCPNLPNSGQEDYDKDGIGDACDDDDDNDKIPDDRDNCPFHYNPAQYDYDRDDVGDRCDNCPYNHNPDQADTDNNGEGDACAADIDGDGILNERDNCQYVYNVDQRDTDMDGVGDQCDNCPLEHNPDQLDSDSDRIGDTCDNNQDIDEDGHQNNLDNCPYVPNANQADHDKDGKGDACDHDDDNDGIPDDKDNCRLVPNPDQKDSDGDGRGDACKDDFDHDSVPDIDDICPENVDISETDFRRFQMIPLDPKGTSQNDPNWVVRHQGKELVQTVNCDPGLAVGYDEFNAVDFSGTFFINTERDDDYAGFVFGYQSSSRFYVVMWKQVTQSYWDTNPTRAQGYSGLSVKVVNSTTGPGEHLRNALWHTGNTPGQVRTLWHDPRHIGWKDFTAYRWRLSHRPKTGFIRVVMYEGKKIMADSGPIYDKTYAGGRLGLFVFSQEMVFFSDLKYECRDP

Chain of CD36 expressed on Bowes melanoma cells stably transfected with human CD36 cDNA (P16671 whole entry): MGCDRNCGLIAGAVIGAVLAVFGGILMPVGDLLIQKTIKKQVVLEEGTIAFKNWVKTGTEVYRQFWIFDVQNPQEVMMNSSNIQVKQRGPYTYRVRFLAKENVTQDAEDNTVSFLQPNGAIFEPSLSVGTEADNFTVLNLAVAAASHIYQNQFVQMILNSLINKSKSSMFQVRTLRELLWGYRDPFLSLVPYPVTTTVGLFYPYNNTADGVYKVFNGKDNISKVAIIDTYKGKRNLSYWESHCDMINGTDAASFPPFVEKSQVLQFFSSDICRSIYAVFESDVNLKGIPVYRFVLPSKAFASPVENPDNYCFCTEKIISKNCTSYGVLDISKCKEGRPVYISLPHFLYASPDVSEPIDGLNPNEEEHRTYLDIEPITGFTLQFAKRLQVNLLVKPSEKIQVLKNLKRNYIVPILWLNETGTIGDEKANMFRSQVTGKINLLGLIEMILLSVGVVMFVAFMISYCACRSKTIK

Binder: SPWDIASVTAGGGVQKRSK [TSP-1 peptide Mal III]
- IC50 [1]: 8.6 ± 1.12 µM
- binding result [2]: binds

B1: GST-CD36 fusion protein FP67-157 (domain or fragment, human, UniProt P16671 67-157, looked up)
chain: IFDVQNPQEVMMNSSNIQVKQRGPYTYRVRFLAKENVTQDAEDNTVSFLQPNGAIFEPSLSVGTEADNFTVLNLAVAAASHIYQNQFVQMI
- binding result [3]: binds

Binder: NGVQYRN [TSP-1 peptide Col overlap]
- IC50 [1]: 30.1 ± 8.88 µM

Binder: B2
- binding result [3]: binds
